Test results: patent US20100119588A1

target: hemagglutinin H3 on influenza virus A/Aichi/2/68 strain (H3N2) (influenza virus A/Aichi/2/68 (H3N2)) (UniProt P03437); experiment: cell-based or functional assay

**Q.** Which IC50(µM), plaque assay, infection of MDCK cells does the source give for C18-s2(1-2) (C18-AR peptide amide) here?
**A.** The IC50(µM), plaque assay, infection of MDCK cells was > 100 µM.

**Q.** C18-s2(1-3) (C18-ARL peptide amide) was tested. Which IC50(µM), plaque assay, infection of MDCK cells did it give?
**A.** The IC50(µM), plaque assay, infection of MDCK cells was > 100 µM.

**Q.** For C18-s2(1-4) (C18-ARLP peptide amide), which IC50(µM), plaque assay, infection of MDCK cells is on record?
**A.** The IC50(µM), plaque assay, infection of MDCK cells was 21 µM.

**Q.** Which IC50(µM), plaque assay, infection of MDCK cells does the source give for C18-s2(1-4)P4A (C18-ARLA peptide amide) here?
**A.** Its IC50(µM), plaque assay, infection of MDCK cells is > 100 µM.

**Q.** With C18-s2(1-5) (C18-ARLPR peptide amide) as the substance, how does the IC50(µM), plaque assay, infection of MDCK cells read?
**A.** The IC50(µM), plaque assay, infection of MDCK cells was 3 µM.

**Q.** Which IC50(µM), plaque assay, infection of MDCK cells does the source give for C18-s2(1-6) (C18-ARLPRT peptide amide) here?
**A.** The IC50(µM), plaque assay, infection of MDCK cells was 5 µM.

**Q.** For C18-s2(1-7) (C18-ARLPRTM peptide amide), which IC50(µM), plaque assay, infection of MDCK cells is on record?
**A.** Its IC50(µM), plaque assay, infection of MDCK cells is 9.1 µM.

**Q.** C18-s2(2-8) (C18-RLPRTMV peptide amide) was tested. Which IC50(µM), plaque assay, infection of MDCK cells did it give?
**A.** The IC50(µM), plaque assay, infection of MDCK cells was > 100 µM.

**Q.** For “C18-s2(5-11) (C18-RTMVHPK peptide amide)”, which IC50(µM), plaque assay, infection of MDCK cells is on record?
**A.** Its IC50(µM), plaque assay, infection of MDCK cells is > 100 µM.

**Q.** Which IC50(µM), plaque assay, infection of MDCK cells does the source give for “C18-s2(8-15) (C18-VHPKPAQP peptide amide)” here?
**A.** The IC50(µM), plaque assay, infection of MDCK cells was 10.5 µM.

**Q.** How did the IC50(µM), plaque assay, infection of MDCK cells turn out when “C18-s2(r1-8) (C18-VMTRPLRA peptide amide)” was run?
**A.** Its IC50(µM), plaque assay, infection of MDCK cells is 226 µM.

target: hemagglutinin H3 on influenza virus A/Aichi/2/68 strain (H3N2) (influenza virus A/Aichi/2/68 (H3N2)) (UniProt P03437); experiment: cell-based or functional assay; remark: another data set of the same source

**Q.** For C18-s2(1-5) (C18-ARLPR peptide amide), which IC50(µM), plaque assay, infection of MDCK cells is on record?
**A.** The IC50(µM), plaque assay, infection of MDCK cells was 1.55 µM.

**Q.** “C18-s2(1-8) (C18-ARLPRTMV peptide amide)” was tested. Which IC50(µM), plaque assay, infection of MDCK cells did it give?
**A.** Its IC50(µM), plaque assay, infection of MDCK cells is 1.4 µM.

**Q.** How did the IC50(µM), plaque assay, infection of MDCK cells turn out when C18-s2(r1-4) (C18-PLRA peptide amide) was run?
**A.** Its IC50(µM), plaque assay, infection of MDCK cells is 14 µM.

**Q.** With C18-s2(r1-5) (C18-RPLRA peptide amide) as the substance, how does the IC50(µM), plaque assay, infection of MDCK cells read?
**A.** Its IC50(µM), plaque assay, infection of MDCK cells is 0.94 µM.
